# T1: H-kininogen (Homo sapiens, UniProt P01042)
# T1 sequence (P01042 19-644): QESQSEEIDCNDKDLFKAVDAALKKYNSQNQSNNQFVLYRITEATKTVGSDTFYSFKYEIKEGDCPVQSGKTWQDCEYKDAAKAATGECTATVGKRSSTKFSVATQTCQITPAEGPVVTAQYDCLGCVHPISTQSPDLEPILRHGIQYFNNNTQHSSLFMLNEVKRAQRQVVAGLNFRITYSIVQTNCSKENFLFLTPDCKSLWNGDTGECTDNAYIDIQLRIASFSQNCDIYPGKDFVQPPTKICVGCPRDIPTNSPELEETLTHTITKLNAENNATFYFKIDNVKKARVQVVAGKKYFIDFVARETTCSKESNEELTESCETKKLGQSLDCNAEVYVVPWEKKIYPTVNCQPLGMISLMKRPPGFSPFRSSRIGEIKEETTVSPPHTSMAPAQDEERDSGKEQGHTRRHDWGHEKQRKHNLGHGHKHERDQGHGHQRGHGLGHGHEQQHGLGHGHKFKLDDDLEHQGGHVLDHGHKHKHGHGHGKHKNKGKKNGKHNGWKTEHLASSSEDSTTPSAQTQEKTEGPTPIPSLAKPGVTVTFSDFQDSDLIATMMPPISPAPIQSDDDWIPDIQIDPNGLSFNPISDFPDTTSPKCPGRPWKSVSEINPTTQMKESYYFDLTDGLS
# T2: cystatin D (Homo sapiens, UniProt P28325)
# T2 sequence (P28325 21-142): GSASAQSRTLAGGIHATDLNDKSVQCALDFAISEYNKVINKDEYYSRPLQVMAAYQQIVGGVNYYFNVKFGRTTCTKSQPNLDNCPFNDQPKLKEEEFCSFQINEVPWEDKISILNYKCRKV
# T3: cystatin C (Gallus gallus, UniProt P01038)
# T3 sequence (P01038 24-139): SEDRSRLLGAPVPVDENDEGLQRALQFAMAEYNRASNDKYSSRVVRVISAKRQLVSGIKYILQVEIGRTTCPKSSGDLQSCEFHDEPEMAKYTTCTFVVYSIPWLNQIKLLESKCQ
# T4: cystatin C (Rattus norvegicus, UniProt P14841)
# T4 sequence (P14841 21-140): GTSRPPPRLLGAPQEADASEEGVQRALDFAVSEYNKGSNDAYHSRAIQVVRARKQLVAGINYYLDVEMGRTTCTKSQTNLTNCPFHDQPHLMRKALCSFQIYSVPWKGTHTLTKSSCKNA
# T5: cystatin C (Mus musculus, UniProt P21460)
# T5 sequence (P21460 21-140): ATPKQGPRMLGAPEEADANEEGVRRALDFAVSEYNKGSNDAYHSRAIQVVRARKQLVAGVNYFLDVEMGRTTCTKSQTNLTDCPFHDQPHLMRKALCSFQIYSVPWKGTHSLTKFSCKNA
# T6: antimicrobial peptide LL-37 (Homo sapiens, UniProt P49913)
# T6 construct: antimicrobial peptide LL-37
# T6 sequence (P49913 134-170 limits assumed): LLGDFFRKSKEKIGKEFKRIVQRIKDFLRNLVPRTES
# B1: IdeS: new extracellular cysteine protease produced by S. pyogenes, highly specific for IgG; SEQ ID NO: 1 (protein)
# chain: DSFSANQEIRYSEVTPYHVTSVWTKGVTPPANFTQGEDVFHAPYVANQGWYDITKTFNGKDDLLCGAATAGNMLHWWFDQNKDQIKRYLEEHPEKQKINFNGEQMFDVKEAIDTKNHQLDSKLFEYFKEKAFPYLSTKHLGVFPDHVIDMFINGYRLSLTNHGPTPVKEGSKDPRGGIFDAVFTRGDQSKLLTSRHDFKEKNLKEISDLIKKELTEGKALGLSHTYANVRINHVINLWGADFDSNGNLKAIYVTDSDSNASIGMKKYFVGVNSAGKVAISAKEIKEDNIGAQVLGLFTLSTGQDSWNQTN
# modifications: S. Pyogenes
# Legend:
# [1] = system: human IgG; test: IdeS cleavage assay of Ig classes: IgG; type: biochemical
# Description: (§1) For standard IdeS activity assays, bacteria cultures were grown to OD620=0.4. Bacteria were pelleted by centrifugation and supernatants were sterile-filtered through a 0.22 μm membrane (Millipore) prior to use. For activity assays, […] of supernatant were mixed with 5 μl of IgG (10 mg/ml, Sigma) and the volume was adjusted with PBS to 100 μl. For screening of IdeS activity in different S. progenes strains, E64 was added to a final concentration of 40 μM. The mixtures were incubated at 37° C. for 30 min and samples were analyzed by 12% SDS-PAGE. For cleavage assays of different classes of Ig, purified IdeS (0.3 μg/ml) was incubated with 3 μg Ig for 2 h at 37° C., and analyzed by 12% SDS-PAGE analysis.
# [2] = system: human IgD; test: IdeS cleavage assay of Ig classes: IgD; type: biochemical; details: purified IdeS, 2 h at 37° C.
# Description: as §1
# [3] = system: human IgE; test: IdeS cleavage assay of Ig classes: IgE; type: biochemical; details: purified IdeS, 2 h at 37° C.
# Description: as §1
# [4] = system: different subclasses of IgG; test: IdeS activity against the subclasses of IgG; type: biochemical, human
# [5] = system: IgG2; test: IdeS activity against IgG2; type: biochemical, human
# [6] = system: whole human plasma; test: Incubation of human plasma with IdeS; type: biochemical
# [7] = system: rabbit IgG; test: IdeS species restrictions: rabbit IgG; type: biochemical
# [8] = system: goat IgG; test: IdeS species restrictions: goat IgG; type: biochemical
# [9] = system: murine IgG; test: IdeS species restrictions: murine IgG; type: biochemical
# [10] = molecular target: fibronectin (Homo sapiens, UniProt P02751); test: IdeS cleavage of other human proteins: fibronectin; type: biochemical
# Sequence of fibronectin (P02751 32-2477): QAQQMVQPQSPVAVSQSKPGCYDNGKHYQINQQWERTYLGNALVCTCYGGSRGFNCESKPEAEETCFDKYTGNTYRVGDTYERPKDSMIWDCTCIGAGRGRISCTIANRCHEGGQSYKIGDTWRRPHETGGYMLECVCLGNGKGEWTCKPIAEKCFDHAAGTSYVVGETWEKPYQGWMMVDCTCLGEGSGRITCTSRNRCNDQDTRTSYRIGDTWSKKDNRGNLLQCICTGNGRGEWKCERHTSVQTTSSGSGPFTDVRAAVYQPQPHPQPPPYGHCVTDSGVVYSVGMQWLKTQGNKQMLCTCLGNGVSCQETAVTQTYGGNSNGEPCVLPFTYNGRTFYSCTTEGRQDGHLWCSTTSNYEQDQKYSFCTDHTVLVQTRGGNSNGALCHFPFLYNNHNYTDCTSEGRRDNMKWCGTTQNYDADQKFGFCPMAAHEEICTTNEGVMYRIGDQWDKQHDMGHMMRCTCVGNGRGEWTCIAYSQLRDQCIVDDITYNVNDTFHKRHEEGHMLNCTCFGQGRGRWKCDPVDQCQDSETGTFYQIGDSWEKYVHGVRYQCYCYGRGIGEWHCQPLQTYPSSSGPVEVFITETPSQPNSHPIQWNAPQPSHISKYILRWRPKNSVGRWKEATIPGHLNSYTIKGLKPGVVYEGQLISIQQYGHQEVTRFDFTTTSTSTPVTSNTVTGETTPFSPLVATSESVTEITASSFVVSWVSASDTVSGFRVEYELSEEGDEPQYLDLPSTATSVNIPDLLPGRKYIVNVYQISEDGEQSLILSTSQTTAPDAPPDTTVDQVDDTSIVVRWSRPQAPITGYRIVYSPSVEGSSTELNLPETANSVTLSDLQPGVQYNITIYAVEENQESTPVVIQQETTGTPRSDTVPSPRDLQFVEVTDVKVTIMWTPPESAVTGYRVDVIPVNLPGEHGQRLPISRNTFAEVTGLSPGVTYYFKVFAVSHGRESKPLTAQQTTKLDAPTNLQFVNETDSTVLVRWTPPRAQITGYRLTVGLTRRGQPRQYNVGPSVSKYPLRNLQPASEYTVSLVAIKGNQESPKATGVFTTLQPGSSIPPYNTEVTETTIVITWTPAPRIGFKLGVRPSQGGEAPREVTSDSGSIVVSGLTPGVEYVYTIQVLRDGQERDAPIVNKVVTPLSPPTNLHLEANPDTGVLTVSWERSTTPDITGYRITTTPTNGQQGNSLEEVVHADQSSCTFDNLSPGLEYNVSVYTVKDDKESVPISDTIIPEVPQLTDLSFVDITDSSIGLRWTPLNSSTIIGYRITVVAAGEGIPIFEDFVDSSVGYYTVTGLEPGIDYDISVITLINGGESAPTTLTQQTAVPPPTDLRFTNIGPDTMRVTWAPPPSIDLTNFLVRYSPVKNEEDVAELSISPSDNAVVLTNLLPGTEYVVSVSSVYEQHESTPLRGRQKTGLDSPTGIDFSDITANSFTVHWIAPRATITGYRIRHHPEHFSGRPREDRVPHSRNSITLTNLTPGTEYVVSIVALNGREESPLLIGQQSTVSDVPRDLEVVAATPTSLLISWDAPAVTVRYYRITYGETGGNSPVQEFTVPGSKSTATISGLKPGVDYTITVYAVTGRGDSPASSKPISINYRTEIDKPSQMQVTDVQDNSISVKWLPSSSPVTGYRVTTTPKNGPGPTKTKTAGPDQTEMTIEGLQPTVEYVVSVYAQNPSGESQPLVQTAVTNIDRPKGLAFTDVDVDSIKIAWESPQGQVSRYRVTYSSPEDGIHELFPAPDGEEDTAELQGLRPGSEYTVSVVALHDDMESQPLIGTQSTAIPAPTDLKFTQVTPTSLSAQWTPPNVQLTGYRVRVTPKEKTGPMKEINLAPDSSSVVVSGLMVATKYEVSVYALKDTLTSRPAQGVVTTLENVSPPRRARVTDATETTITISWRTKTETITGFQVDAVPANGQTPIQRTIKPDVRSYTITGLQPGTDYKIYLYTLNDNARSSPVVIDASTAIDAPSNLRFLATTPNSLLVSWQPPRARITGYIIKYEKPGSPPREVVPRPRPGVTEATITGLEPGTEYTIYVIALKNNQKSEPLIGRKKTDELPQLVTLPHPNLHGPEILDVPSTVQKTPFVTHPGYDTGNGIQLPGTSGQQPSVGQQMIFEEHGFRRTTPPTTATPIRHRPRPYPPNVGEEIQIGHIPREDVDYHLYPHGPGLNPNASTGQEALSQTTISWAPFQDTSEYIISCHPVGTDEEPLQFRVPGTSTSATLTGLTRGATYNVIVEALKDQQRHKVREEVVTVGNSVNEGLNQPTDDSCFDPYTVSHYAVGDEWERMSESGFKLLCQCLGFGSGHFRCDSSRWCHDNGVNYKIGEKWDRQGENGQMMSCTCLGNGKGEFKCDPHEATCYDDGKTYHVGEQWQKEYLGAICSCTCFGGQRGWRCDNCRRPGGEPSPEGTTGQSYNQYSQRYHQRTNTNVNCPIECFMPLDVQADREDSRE
# [11] = molecular target: albumin (Homo sapiens, UniProt P02768); test: IdeS cleavage of other human proteins: albumin; type: biochemical
# [12] = molecular target: transferrin (Homo sapiens, UniProt P02787); test: IdeS cleavage of other human proteins: transferrin; type: biochemical
# Sequence of transferrin (P02787 20-698): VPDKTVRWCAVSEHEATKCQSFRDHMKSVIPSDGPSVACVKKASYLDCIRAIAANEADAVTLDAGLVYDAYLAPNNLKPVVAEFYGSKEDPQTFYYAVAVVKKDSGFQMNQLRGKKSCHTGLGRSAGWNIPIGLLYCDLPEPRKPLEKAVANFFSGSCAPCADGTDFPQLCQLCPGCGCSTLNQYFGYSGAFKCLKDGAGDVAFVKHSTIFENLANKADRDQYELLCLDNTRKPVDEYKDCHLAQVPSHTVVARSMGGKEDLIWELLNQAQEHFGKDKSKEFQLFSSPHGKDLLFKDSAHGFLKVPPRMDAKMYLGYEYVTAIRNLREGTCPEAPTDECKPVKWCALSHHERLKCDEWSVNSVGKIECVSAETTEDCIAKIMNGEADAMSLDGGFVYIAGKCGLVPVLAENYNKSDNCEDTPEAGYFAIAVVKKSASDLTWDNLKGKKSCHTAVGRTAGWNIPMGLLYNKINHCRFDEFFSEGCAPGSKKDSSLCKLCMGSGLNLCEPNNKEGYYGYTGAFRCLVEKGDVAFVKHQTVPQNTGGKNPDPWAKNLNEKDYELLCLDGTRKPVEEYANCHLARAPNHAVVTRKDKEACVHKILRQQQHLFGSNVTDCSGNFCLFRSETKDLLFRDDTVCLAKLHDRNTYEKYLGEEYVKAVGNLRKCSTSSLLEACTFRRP
# [13] = system: laminin; test: IdeS cleavage of other human proteins: laminin; type: biochemical
# [14] = molecular target: T1, H-kininogen; test: IdeS cleavage of other human proteins: H-kininogen; type: biochemical
# [15] = molecular target: α 1-antitrypsin (Homo sapiens, UniProt P01009); test: IdeS cleavage of other human proteins: α 1-antitrypsin; type: biochemical
# Sequence of α 1-antitrypsin (P01009 25-418): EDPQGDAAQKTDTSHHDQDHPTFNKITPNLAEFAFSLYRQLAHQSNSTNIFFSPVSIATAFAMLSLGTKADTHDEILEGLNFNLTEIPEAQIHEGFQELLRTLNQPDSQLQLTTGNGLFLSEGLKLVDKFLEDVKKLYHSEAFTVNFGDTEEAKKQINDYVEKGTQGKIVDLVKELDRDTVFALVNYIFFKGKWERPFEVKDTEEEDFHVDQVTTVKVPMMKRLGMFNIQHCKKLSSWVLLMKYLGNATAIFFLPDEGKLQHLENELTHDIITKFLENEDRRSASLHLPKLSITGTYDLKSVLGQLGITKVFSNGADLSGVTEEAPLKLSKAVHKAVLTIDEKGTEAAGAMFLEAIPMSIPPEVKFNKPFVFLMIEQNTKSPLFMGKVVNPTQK
# [16] = molecular target: aprotinin (Bos taurus, UniProt P00974); test: IdeS cleavage of other human proteins: aprotinin; type: biochemical
# [17] = molecular target: T2, cystatin D; test: IdeS cleavage of other human proteins: cystatin D; type: biochemical
# [18] = molecular target: T3, cystatin C; test: IdeS incubation with chicken cystatin C; type: biochemical
# [19] = molecular target: T4, cystatin C; test: IdeS incubation with rat cystatin C; type: biochemical
# [20] = molecular target: T5, cystatin C; test: IdeS incubation with mouse cystatin C; type: biochemical
# [21] = molecular target: T6, antimicrobial peptide LL-37; test: IdeS activity towards peptides: LL-37; type: biochemical
# [22] = system: synthetic peptide homologous to amino acids 234 to 241 of human IgG; test: IdeS activity towards peptides: IgG hinge peptide; type: biochemical
# [23] = IdeS activity towards peptides: Z-LVG-CHN2; type: biochemical; details: excess IdeS
# [24] = system: Fc-fragment generated by papain cleavage, including 12 amino acids of the hinge region; test: IdeS cleavage of papain-generated Fc-fragment; type: biochemical, human
molecule,measurement,setting,value
B1,degradation of human IgG,"[1]; purified IdeS, 2 h at 37° C.",only IgG was degraded
same,cleavage of human IgG,[1]; species restrictions,cleave
same,degradation of human IgD,[2],only IgG was degraded
same,degradation of human IgE,[3],only IgG was degraded
same,digestion of the different subclasses of IgG,[4],all were susceptible for IdeS digestion
same,digestion of IgG2 compared to the other subclasses,[5],less efficiently digested
same,degradation products in human plasma,[6]; purified IdeS,only the 31 kDa IgG-derived band and no additional degradation products could be identified
same,cleavage products,"[6]; whole human plasma, further studies",No cleavage products could be detected
same,cleavage of rabbit IgG,[7],cleave
same,cleavage of goat IgG,[8],cleave
same,cleavage of murine IgG,[9],not murine IgG
same,"cleavage products, fibronectin",[10],No cleavage products could be detected
same,"cleavage products, albumin",[11],No cleavage products could be detected
same,"cleavage products, transferrin",[12],No cleavage products could be detected
same,"cleavage products, laminin",[13],No cleavage products could be detected
same,"cleavage products, H-kininogen",[14],No cleavage products could be detected
same,"cleavage products, α 1-antitrypsin",[15],No cleavage products could be detected
same,"cleavage products, aprotinin",[16],No cleavage products could be detected
same,"cleavage products, cystatin D",[17],No cleavage products could be detected
same,"cleavage products, cystatin C from chicken",[18],No cleavage products could be observed
same,"cleavage products, cystatin C from rat",[19],No cleavage products could be observed
same,"cleavage products, cystatin C from mouse",[20],No cleavage products could be observed
same,degradation of LL-37,[21],did not reveal any degradation
same,degradation of synthetic peptide (amino acids 234 to 241 of human IgG),[22],did not reveal any degradation
same,cleavage of Z-LVG-CHN2,[23],"Neither was the synthetic peptide Z-LVG-CHN2, which inhibits IdeS activity, cleaved"
same,cleavage of papain-generated Fc-fragment,[24],is cleaved

# Reference: patent US7666582B2, “IdeS, an IgG-degrading enzyme of Streptococcus pyogenes” (Hansa Medical Research AB, priority 2001, dated 2010)
